Data taken from patent publication US20250002610A1 (Genmab, published 2025).

T1: human DR4 (Death Receptor 4), cell surface expressed on human tumor cell lines (human, UniProt O00220 24-468)
T1 construct: also called TNFRSF10A; TRAIL-R1
T1 sequence: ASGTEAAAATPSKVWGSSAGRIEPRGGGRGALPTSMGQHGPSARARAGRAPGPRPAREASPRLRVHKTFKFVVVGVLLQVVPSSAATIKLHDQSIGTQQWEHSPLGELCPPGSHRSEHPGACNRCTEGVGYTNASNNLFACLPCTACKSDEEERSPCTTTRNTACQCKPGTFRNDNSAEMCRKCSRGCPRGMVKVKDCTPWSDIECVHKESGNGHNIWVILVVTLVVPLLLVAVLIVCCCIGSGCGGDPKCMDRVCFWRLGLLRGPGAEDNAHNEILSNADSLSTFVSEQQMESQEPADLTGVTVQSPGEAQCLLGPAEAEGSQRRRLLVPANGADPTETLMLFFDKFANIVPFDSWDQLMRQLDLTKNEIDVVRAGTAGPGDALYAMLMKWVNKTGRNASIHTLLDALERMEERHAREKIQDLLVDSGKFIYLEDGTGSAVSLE

T2: human FAPα (Fibroblast activation protein alpha), cell surface expressed (human, UniProt Q12884 1-760)
T2 construct: Endogenous on human lung fibroblasts and CAFs
T2 sequence: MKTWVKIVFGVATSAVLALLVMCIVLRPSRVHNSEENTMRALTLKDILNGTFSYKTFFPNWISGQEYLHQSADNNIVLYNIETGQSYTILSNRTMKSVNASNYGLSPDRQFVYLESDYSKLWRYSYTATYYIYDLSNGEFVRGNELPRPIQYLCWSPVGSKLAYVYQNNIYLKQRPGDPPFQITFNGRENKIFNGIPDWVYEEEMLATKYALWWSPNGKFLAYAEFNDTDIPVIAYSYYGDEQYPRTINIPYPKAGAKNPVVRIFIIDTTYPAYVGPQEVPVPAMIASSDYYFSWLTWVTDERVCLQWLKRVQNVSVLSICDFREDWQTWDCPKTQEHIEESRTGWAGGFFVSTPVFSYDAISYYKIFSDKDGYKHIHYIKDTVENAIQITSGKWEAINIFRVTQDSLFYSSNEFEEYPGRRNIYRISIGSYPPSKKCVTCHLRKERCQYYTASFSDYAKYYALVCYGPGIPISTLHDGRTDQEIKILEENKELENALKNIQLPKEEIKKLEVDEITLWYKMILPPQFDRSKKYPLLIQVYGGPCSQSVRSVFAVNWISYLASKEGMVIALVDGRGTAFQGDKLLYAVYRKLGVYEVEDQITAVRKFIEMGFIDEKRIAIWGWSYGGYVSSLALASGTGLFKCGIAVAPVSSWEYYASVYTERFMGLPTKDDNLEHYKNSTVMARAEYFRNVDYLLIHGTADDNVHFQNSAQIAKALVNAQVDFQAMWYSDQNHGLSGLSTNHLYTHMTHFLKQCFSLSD


What was measured:
[1] = molecular target: T1, human DR4 (Death Receptor 4), cell …; experiment: flow cytometry, MDA-MB-231 cells, average ± SEM
[2] = molecular target: T1, human DR4 (Death Receptor 4), cell …; experiment: flow cytometry, MDA-MB-231 cells, N = 2
[3] = molecular target: T1, human DR4 (Death Receptor 4), cell …; experiment: flow cytometry, MDA-MB-231 cells, N = 1
[4] = molecular target: T2, human FAPα (Fibroblast activation …); experiment: flow cytometry, human lung fibroblasts, n = 1
Experimental: (§1) Human lung fibroblasts and CAFs (50,000 cells/well) were seeded in 96-Well round bottom plates (Greiner Bio-one, Cat #650101). Antibody dilutions were prepared using fluorescence-activated cell sorting (FACS) buffer, consisting of phosphate buffer saline (PBS, Lonza, Cat #BE17-517Q)+1% Bovine Serum Albumin (BSA, Roche, Cat #10735086001)+0.02% Sodium Azide (Bio-World, Cat #41920044-3). Plates were centrifuged, supernatant was removed, cells were resuspended in 50 μL of human Fc Block (BD, Cat #564220, diluted 1:100 in FACS buffer) and 50 μL of viability stain TO-PRO-3 Iodide (Thermo Fisher, Cat #T3605, diluted 1: 25,000 in FACS buffer), and incubated for 15 min at 4° C. Plates were washed three times with FACS buffer. Plates were centrifuged, supernatant was removed, cells were resuspended in 50 μL of antibody dilutions (concentration range 90-0.0005 μg/mL, three-fold dilution steps using FACS buffer) of BisG1-FAPα-FERL/DR4-FERR, BisG1-FAPα-FERL/b12-FERR, BisG1-b12-FERL/b12-FERR (top six concentrations only for CAFs culture) or IgG1-FAPα-FERL (top four concentrations only for CAFs culture) and incubated for 30 min at 4° C. Cells were washed three times with FACS buffer and resuspended in 50 μL of Fluorescein isothiocyanate (FITC)-labeled polyclonal antibody goat anti-mouse IgG1 (Jackson Immuno Research, Cat #109-096-097, diluted 1:100 in FACS buffer). After 30 min incubation at 4° C., cells were washed twice with FACS buffer and resuspended in FACS buffer. Antibody binding to viable cells (TO-PRO-3 negative) was analyzed by flow cytometry on a FACSCelesta™ (BD biosciences) and data were processed using FlowJo_v10.8.1 (FlowJo LLC). Geomean fluorescence intensity, gMFI, was determined and visualized using GraphPad Prism. Binding curves were analyzed using nonlinear regression analysis. The concentration (pg/mL) at which 50% of the maximal effect was observed (EC₅₀) was derived from the fitted curves.
(§2) Binding of FAPα-targeting monoclonal antibody clones, IgG1-FAPα-FEAL and IgG1-FAP5-FEAL, and bispecific antibodies carrying a binding arm derived from the two FAPα-binding clones (BisG1-FAPα-FEAL/b12-FEAR and BisG1-FAP5-FEAL/b12-FEAR) to human lung fibroblasts, which endogenously express FAPα, was compared and analyzed by flow cytometry.

[5] = molecular target: T2, human FAPα (Fibroblast activation …); experiment: flow cytometry, human lung fibroblasts, n = 2
Experimental: as §1, with “After 30 min incubation at 4° C., cells were washed twice with FACS buffer and resuspended in FACS buffer.” left out, “The concentration (pg/mL) at which 50% of the maximal effect was observed (EC₅₀) was derived from the fitted curves.” left out
as §2

| Binder | EC50 [1] | Max MFI (at 90 µg/mL) [1] | EC50 [2] | Max MFI (at 90 µg/mL) [2] | EC50 [3] | Max MFI (at 90 µg/mL) [3] | EC50 [4] | EC50 [5] |
| --- | --- | --- | --- | --- | --- | --- | --- | --- |
| IgG1-DR4-T1014A04-FEAR (antibody, V domains shown, Prior art DR4 clone (US 7,361,341 B2)) VH: EVQLVQSGADVKRPGASVKVSCKISGDSFNAYFIHWVRQAPGQGLEWMGWFNPDSGTADSAQKFHGRVTMTRDTSSSTAFLELSRLRSDDTAVYYCVRQHRGNTFAPWGRGTMVTVSS VL: QSVLTQPPSASGSPGQSVTISCTGTTSDVGGYNYVSWYQQHPGKAPKLMIYGVNQRPSGVPDRFSGSKSGNTASLTVSGLQAEDEADYYCSSYAGSNNWVFGGGTKLTVLG | 1.25 µg/mL | 1280 MFI | 2.04 µg/mL | 1610 MFI | 0.45 µg/mL | 953 MFI | – | – |
| IgG1-FAPα-FEAL (antibody) heavy: EVQLLESGGGLVQPGGSPRLSCEASGFTFSSYALSWVRQAPGKGLEWVSAISGSGGGRYYADSVKGRFTISRDNSKNTLFLQMNSLRAEDTAVYYCAKEGYSSSGTYWDHWGQGTLVTVSSASTKGPSVFPLAPSSKSTSGGTAALGCLVKDYFPEPVTVSWNSGALTSGVHTFPAVLQSSGLYSLSSVVTVPSSSLGTQTYICNVNHKPSNTKVDKRVEPKSCDKTHTCPPCPAPEFEGGPSVFLFPPKPKDTLMISRTPEVTCVVVAVSHEDPEVKFNWYVDGVEVHNAKTKPREEQYNSTYRVVSVLTVLHQDWLNGKEYKCKVSNKALPAPIEKTISKAKGQPREPQVYTLPPSREEMTKNQVSLTCLVKGFYPSDIAVEWESNGQPENNYKTTPPVLDSDGSFLLYSKLTVDKSRWQQGNVFSCSVMHEALHNHYTQKSLSLSPG light: AIQMTQSPSSVSASVGDRVTITCRASQGVSSWLAWYQQKPGRAPKLLIYVASTLQSGVPSRFSGSGSGTDFTLTINSLQPEDFATYYCQQANSFPPTFGQGTRLEMKRTVAAPSVFIFPPSDEQLKSGTASVVCLLNNFYPREAKVQWKVDNALQSGNSQESVTEQDSKDSTYSLSSTLTLSKADYEKHKVYACEVTHQGLSSPVTKSFNRGEC | – | – | – | – | – | – | 0.014 µg/mL | – |
| BisG1-b12-FEAL/DR4-chCTB007-FEAR (bispecific antibody, human IgG1, kappa, Fab-arm exchange of IgG1-b12-FEAL and IgG1-DR4-chCTB007-FEAR) heavy 1: QVQLVQSGAEVKKPGASVKVSCQASGYRFSNFVIHWVRQAPGQRFEWMGWINPYNGNKEFSAKFQDRVTFTADTSANTAYMELRSLRSADTAVYYCARVGPYSWDDSPQDNYYMDVWGKGTTVIVSSASTKGPSVFPLAPSSKSTSGGTAALGCLVKDYFPEPVTVSWNSGALTSGVHTFPAVLQSSGLYSLSSVVTVPSSSLGTQTYICNVNHKPSNTKVDKRVEPKSCDKTHTCPPCPAPEFEGGPSVFLFPPKPKDTLMISRTPEVTCVVVAVSHEDPEVKFNWYVDGVEVHNAKTKPREEQYNSTYRVVSVLTVLHQDWLNGKEYKCKVSNKALPAPIEKTISKAKGQPREPQVYTLPPSREEMTKNQVSLTCLVKGFYPSDIAVEWESNGQPENNYKTTPPVLDSDGSFLLYSKLTVDKSRWQQGNVFSCSVMHEALHNHYTQKSLSLSPG light 1: EIVLTQSPGTLSLSPGERATFSCRSSHSIRSRRVAWYQHKPGQAPRLVIHGVSNRASGISDRFSGSGSGTDFTLTITRVEPEDFALYYCQVYGASSYTFGQGTKLERKRTVAAPSVFIFPPSDEQLKSGTASVVCLLNNFYPREAKVQWKVDNALQSGNSQESVTEQDSKDSTYSLSSTLTLSKADYEKHKVYACEVTHQGLSSPVTKSFNRGEC heavy 2: EVQLQQSGAELVKPGASVKLSCTASGFNIKDTYMHWVKQRPEQGLEWIGRIDPANGNTKYDPKFQGKATITADTSSNTAYLQLSSLTSEDTAVYYCAYYYVSNAWFTYWGQGTLVTVSAASTKGPSVFPLAPSSKSTSGGTAALGCLVKDYFPEPVTVSWNSGALTSGVHTFPAVLQSSGLYSLSSVVTVPSSSLGTQTYICNVNHKPSNTKVDKRVEPKSCDKTHTCPPCPAPEFEGGPSVFLFPPKPKDTLMISRTPEVTCVVVAVSHEDPEVKFNWYVDGVEVHNAKTKPREEQYNSTYRVVSVLTVLHQDWLNGKEYKCKVSNKALPAPIEKTISKAKGQPREPQVYTLPPSREEMTKNQVSLTCLVKGFYPSDIAVEWESNGQPENNYKTTPPVLDSDGSFFLYSRLTVDKSRWQQGNVFSCSVMHEALHNHYTQKSLSLSPG light 2: DIQMTQSPASLSVSVGETVTITCRASENIYSNLEWYQQKQGKSPQLLVYAATNLADGVPSRFSGSGSGTQYSLKINSLQSEDFGSYYCQHFWGTWTFGGGTKLEIKRTVAAPSVFIFPPSDEQLKSGTASVVCLLNNFYPREAKVQWKVDNALQSGNSQESVTEQDSKDSTYSLSSTLTLSKADYEKHKVYACEVTHQGLSSPVTKSFNRGEC | 2.14 µg/mL | 2550 MFI | 2.68 µg/mL | 2160 MFI | 1.61 µg/mL | 2950 MFI | – | – |
| BisG1-FAP5-FEAL/b12-FEAR (bispecific antibody, human IgG1, kappa, Fab-arm exchange of IgG1-FAP5-FEAL and IgG1-b12-FEAR) heavy 1: QVQLQQSGAELARPGASVNLSCLASGYTFTNNGINWLKQRTGQGLEWIGEIYPRSTNTLYNEKFKGKATLTADRSSNTAYMELRSLTSEDSAVYFCARTLTAPFAFWGQGTLVTVSSASTKGPSVFPLAPSSKSTSGGTAALGCLVKDYFPEPVTVSWNSGALTSGVHTFPAVLQSSGLYSLSSVVTVPSSSLGTQTYICNVNHKPSNTKVDKRVEPKSCDKTHTCPPCPAPEFEGGPSVFLFPPKPKDTLMISRTPEVTCVVVAVSHEDPEVKFNWYVDGVEVHNAKTKPREEQYNSTYRVVSVLTVLHQDWLNGKEYKCKVSNKALPAPIEKTISKAKGQPREPQVYTLPPSREEMTKNQVSLTCLVKGFYPSDIAVEWESNGQPENNYKTTPPVLDSDGSFLLYSKLTVDKSRWQQGNVFSCSVMHEALHNHYTQKSLSLSPG light 1: QIVLTQSPAIMSASPGELVTMTCSASSGVNFMHWYQQLSGTSPKRWIFDTSKLASGVPARFSGSGSGTSYSLTISSMEAEDAATYYCQQWSFNPPTFGGGTKLEIKRTVAAPSVFIFPPSDEQLKSGTASVVCLLNNFYPREAKVQWKVDNALQSGNSQESVTEQDSKDSTYSLSSTLTLSKADYEKHKVYACEVTHQGLSSPVTKSFNRGEC heavy 2: QVQLVQSGAEVKKPGASVKVSCQASGYRFSNFVIHWVRQAPGQRFEWMGWINPYNGNKEFSAKFQDRVTFTADTSANTAYMELRSLRSADTAVYYCARVGPYSWDDSPQDNYYMDVWGKGTTVIVSSASTKGPSVFPLAPSSKSTSGGTAALGCLVKDYFPEPVTVSWNSGALTSGVHTFPAVLQSSGLYSLSSVVTVPSSSLGTQTYICNVNHKPSNTKVDKRVEPKSCDKTHTCPPCPAPEFEGGPSVFLFPPKPKDTLMISRTPEVTCVVVAVSHEDPEVKFNWYVDGVEVHNAKTKPREEQYNSTYRVVSVLTVLHQDWLNGKEYKCKVSNKALPAPIEKTISKAKGQPREPQVYTLPPSREEMTKNQVSLTCLVKGFYPSDIAVEWESNGQPENNYKTTPPVLDSDGSFFLYSRLTVDKSRWQQGNVFSCSVMHEALHNHYTQKSLSLSPG light 2: EIVLTQSPGTLSLSPGERATFSCRSSHSIRSRRVAWYQHKPGQAPRLVIHGVSNRASGISDRFSGSGSGTDFTLTITRVEPEDFALYYCQVYGASSYTFGQGTKLERKRTVAAPSVFIFPPSDEQLKSGTASVVCLLNNFYPREAKVQWKVDNALQSGNSQESVTEQDSKDSTYSLSSTLTLSKADYEKHKVYACEVTHQGLSSPVTKSFNRGEC | – | – | – | – | – | – | 0.58 µg/mL | 0.62 µg/mL |
